# Laboratory results as given in patent publication US7951560B2, “Delta 4,5 glycuronidase compositions and methods related thereto” (Massachusetts Institute of Technology, priority 2002, dated 2011).
# Entries after “also recorded” stand apart in the source; their conditions may differ.
# Key:
# [1] = Storage stability and solubility of the recombinant protein after 6× His tag removal; type: physicochemical; settings: 6× His tag removed, phosphate buffer
# Procedure: (§1) A two-step purification comprised of Ni^+2 chelation chromatography followed by thrombin cleavage to remove the 6× His purification tag, typically yielded over 200 mg of greater than 90% pure enzyme as assessed by SDS-PAGE followed by Coomassie Brilliant Blue staining. […] T. and Linker, A., 1972, Biochemistry 11, 568-72]. While removal of the 6× His tag from the N-terminus of the enzyme was unnecessary for optimal hydrolytic activity, the presence of the histidine tag did appear to instigate protein precipitation over an extended time especially at higher enzyme concentrations. This tag was, therefore removed for all subsequent biochemical experiments. In this manner, the recombinant protein was stable at 4° C. for at least two weeks during which time it remained in solution at protein concentrations exceeding 10 mg/mL under the buffer conditions described.
# [2] = Specific activity of recombinant Δ4, 5 glycuronidase purification fractions; type: biochemical; settings: 800 ng protein, 120 μM ΔUHNAc, 100 μl
# Procedure: (§2) Assay for enzyme activity and determination of kinetic parameters. Standard reactions were carried out at 30° C. and included 100 mM sodium phosphate buffer, pH 6.4, 50 mM NaCl, 500 μM disaccharide substrate and 200 nM enzyme in a 100 μl reaction volume. Hydrolysis of heparin disaccharides was determined spectrophotometrically by measuring the loss of the Δ4, 5 chromophore measured at 232 nm Substrate hydrolysis was calculated using the following molar extinction coefficients empirically determined for each disaccharide substrate: ΔUHNAc, ε232=4,524; ΔUHNAc6S, ε232=4,300; ΔUHNS, ε232=6,600; ΔUHNS,6S, ε232=6,075; ΔUHNH26S, ε232=4,826; ΔU2SHNS, ε232=4,433. Initial rates (Vo) were extrapolated from linear activities representing <10% substrate turnover and fit to pseudo first-order kinetics. For kinetic experiments, disaccharide concentration for each respective substrate was varied from 48 to 400 μM concentrations. Km and kcat values were extrapolated from Vo vs. [S] curves fit to the Michaelis Menten equation by a non-linear, least squares regression.
# as §1
# [3] = Kinetic comparison of native and recombinant enzymes; type: biochemical; settings: identical reaction conditions, 200 nM enzyme, 500 μM ΔUHNAc
# Procedure: FIG. 7 depicts a kinetic comparison of native and recombinant enzymes. Relative specific activities were measured for both enzyme fractions under identical reaction conditions that included 200 nM enzyme and 500 μM of the heparin disaccharide substrate (ΔUHNAc). Flavobacterial Δ4, 5 (closed circles); recombinant Δ4, 5 (open circles).
# Having established the reaction conditions for optimal Δ4, 5 glycuronidase activity, we next compared the specific activity of the recombinant enzyme (Δ4,5^Δ20) relative to the native enzyme purified directly from F. heparinum (FIG. 7). The activities of both enzyme fractions were measured in parallel under identical reaction conditions.
# [4] = Biochemical conditions for optimal enzyme activity (NaCl, pH, temperature, divalent metals)
# Procedure: For experiments measuring the relative effect of ionic strength on glycuronidase activity, the NaCl concentration was varied from 0.05 to 1 M in 0.1 M sodium phosphate buffer (pH 6.4), 200 μM ΔUHNS,6S and […] under otherwise standard reaction conditions. The effect of pH on catalytic activity was kinetically determined at varying AUHNS,6S concentrations in 0.1 M sodium phosphate buffer at pH 5.2, 5.6, 6.0, 6.4, 6.8, 7.2 and 7.8. Data were fit to Michaelis-Menten kinetics as described above and the relative kcat/Km ratios plotted as a function of pH.
# To determine the optimal reaction conditions for Δ4, 5 glycuronidase activity, we analyzed initial reaction rates as a function of buffer, pH, temperature, and ionic strength (FIG. 6). For these experiments, we used the disulfated heparin disaccharide substrate ΔUHNS,6S. Based on what is known about the degradation of heparin/heparan sulfate-like glycosaminoglycans by flavobacteria as well as initial biochemical characterization of this and related enzymes [Warnick, C. T. and Linker, A., 1972, Biochemistry 11, 568-72], we hypothesized that a heparin disaccharide would be an optimal substrate for the Δ4, 5 glycuronidase. Enzyme activity was routinely monitored by a loss of absorbance at 232 nm, corresponding indirectly to the hydrolysis of the uronic acid from the non-reducing end.
# [5] = substrate: N[C@H]1C(O)O[C@H](COS(=O)(=O)O)[C@@H](O[C@@H]2OC(C(=O)O)=C[C@H](O)[C@H]2O)[C@@H]1O; experiment: Kinetic parameters of Δ4, 5 glycuronidase for disaccharide substrates (loss of absorbance at 232 nm, Michaelis-Menten fit); type: biochemical, F. heparinum; settings: other: 200 nM enzyme, 30° C., pH 6.4, substrate 48 to 400 μM
# Procedure: as §2
# (§3) The specificity of the Δ4, 5 glycuronidase acting on various glycosaminoglycan disaccharide substrates was investigated. The various substrates examined included both heparin and chondroitin disaccharides as well as an hyaluronadate. In particular, we considered the possibility of any structural discriminations pertaining to glycosidic linkage position (1→4 vs. 1→3) and relative sulfation state within the disaccharide. For each substrate, kinetic parameters were determined based on substrate saturation profiles that fit Michaelis-Menten assumptions (FIG. 8).
# [6] = substrate: O=C(O)C1=C[C@H](O)[C@@H](O)[C@H](O[C@H]2[C@H](O)[C@@H](NS(=O)(=O)O)C(O)O[C@@H]2COS(=O)(=O)O)O1; experiment: as above; type: biochemical, F. heparinum; settings: other: 200 nM enzyme, 30° C., pH 6.4, substrate 48 to 400 μM
# Procedure: as §2, §3
# [7] = substrate: O=C(O)C1=C[C@H](O)[C@@H](O)[C@H](O[C@H]2[C@H](O)[C@@H](NS(=O)(=O)O)C(O)O[C@@H]2CO)O1; experiment: as above; type: biochemical, F. heparinum; settings: other: 200 nM enzyme, 30° C., pH 6.4, substrate 48 to 400 μM
# Procedure: as §2, §3
# [8] = substrate: CC(=O)N[C@H]1C(O)O[C@H](COS(=O)(=O)O)[C@@H](O[C@@H]2OC(C(=O)O)=C[C@H](O)[C@H]2O)[C@@H]1O; experiment: as above; type: biochemical, F. heparinum; settings: other: 200 nM enzyme, 30° C., pH 6.4, substrate 48 to 400 μM
# Procedure: as §2, §3
# [9] = substrate: CC(=O)N[C@H]1C(O)O[C@H](CO)[C@@H](O[C@@H]2OC(C(=O)O)=C[C@H](O)[C@H]2O)[C@@H]1O; experiment: as above; type: biochemical, F. heparinum; settings: other: 200 nM enzyme, 30° C., pH 6.4, substrate 48 to 400 μM
# Procedure: as §2, §3
molecule,measurement,setting,value
"recombinant Δ4, 5 glycuronidase (Δ4,5^Δ20) (Pedobacter heparinus DSM 2366) (protein) MTVTKGNGDDWLKKSTKTAVIQLTRAAQTYTPGMNPRSVNPDGTVRLAPPRDWTTGFFPGTLWYGYELSGDKNLAAEAKRFTLALDTIQYVKDTHDLGFMLYCSYGNAYRVTGDKIYLKPLENGAANLYARFNKKVGAIRSWDFGHWQFPVIIDNLMNLEYLYWAGKEFNKPEWFDAAKTHAVTTMKNHFRKDYSSYHVISYDTLSGKVLQRETHQGLTNESAWARGQAWGLYGYTMSYKDTKDKKFIEHAEHIAAFIMNHPAMPADKIPLWDFDVHNRDRSPRDASAAAVIASALLDLSTQVKDGQKYFKFAEDILKTLSSDEYLAKPGENQFFILKHSVGALLYNSEIDTPLNYADYYYLEALKRYAEIKKIDLKTINQS",stable at 4° C.,[1],at least two weeks
same,Sp. Activity,[2]; Crude lysate,4.7 μmoles DiS/min./mg protein
same,Sp. Activity,[2]; Ni^+2 chromatography,12.9 μmoles DiS/min./mg protein
same,Sp. Activity,[2]; Thrombin cleavage,13.6 μmoles DiS/min./mg protein
same,specific activity relative to the native Flavobacterial enzyme,[3],approximately three-fold; also recorded: at least two-fold; also recorded: roughly three-fold
same,requirement for divalent metal ions,[4],no evidence that metals are either required for catalysis or activate the enzyme
same,pH optimum,"[4]; 0.1 M sodium phosphate pH 5.2-7.8, ΔUHNS,6S, relative kcat/Km",6.4
same,initial reaction rates at highest temperatures,[4]; especially at 42° C.,significantly reduced
same,relative enzyme activities after preincubation (enzyme stability),"[4]; preincubation at 30, 37, and 42° C., then measured at standard 30° C.",no significant change
same,inhibition at 250 mM NaCl,[4]; relative to 100% activity at 100 mM NaCl,approximately 60%
same,Km,[5],235 ± 40 µM
same,kcat,[5],2.4 ± 0.2 s⁻¹
same,kcat/Km,[5],10000 M⁻¹ s⁻¹
same,Km,[6],334 ± 57 µM
same,kcat,[6],8.8 ± 0.9 s⁻¹
same,kcat/Km,[6],26000 M⁻¹ s⁻¹
same,Km,[7],251 ± 40 µM
same,kcat,[7],4.9 ± 0.4 s⁻¹
same,kcat/Km,[7],20000 M⁻¹ s⁻¹
same,Km,[8],107 ± 15 µM
same,kcat,[8],11.7 ± 0.6 s⁻¹
same,kcat/Km,[8],110000 M⁻¹ s⁻¹
same,Km,[9],283 ± 31 µM
same,kcat,[9],15.3 ± 0.9 s⁻¹
same,kcat/Km,[9],54000 M⁻¹ s⁻¹
